Source: patent US20250084178A1 (ARCUS BIOSCIENCES, published 2025)
Like-named read-outs stand apart in the source and are kept apart here.

T1: human CD39 expressed on the cell surface (human, UniProt P49961 1-510)
T1 sequence: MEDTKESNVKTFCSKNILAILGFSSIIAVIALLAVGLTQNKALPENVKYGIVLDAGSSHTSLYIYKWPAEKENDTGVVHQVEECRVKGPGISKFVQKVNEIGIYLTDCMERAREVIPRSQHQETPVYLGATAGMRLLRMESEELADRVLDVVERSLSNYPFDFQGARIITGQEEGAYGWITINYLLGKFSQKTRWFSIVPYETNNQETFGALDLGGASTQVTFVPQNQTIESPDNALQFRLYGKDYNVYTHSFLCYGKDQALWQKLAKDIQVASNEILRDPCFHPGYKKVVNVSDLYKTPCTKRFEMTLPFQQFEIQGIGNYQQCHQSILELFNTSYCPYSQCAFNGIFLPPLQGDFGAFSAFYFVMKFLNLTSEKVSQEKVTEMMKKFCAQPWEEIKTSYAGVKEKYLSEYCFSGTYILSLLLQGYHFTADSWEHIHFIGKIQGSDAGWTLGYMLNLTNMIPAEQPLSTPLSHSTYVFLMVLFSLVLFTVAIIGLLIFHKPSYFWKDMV

T2: soluble His-tagged human CD39 ECD protein (human, UniProt P49961 38-478)
T2 construct: also called human CD39 ECD His-tagged antigen; Sino Biological Cat. No. 16020-H08B
T2 sequence: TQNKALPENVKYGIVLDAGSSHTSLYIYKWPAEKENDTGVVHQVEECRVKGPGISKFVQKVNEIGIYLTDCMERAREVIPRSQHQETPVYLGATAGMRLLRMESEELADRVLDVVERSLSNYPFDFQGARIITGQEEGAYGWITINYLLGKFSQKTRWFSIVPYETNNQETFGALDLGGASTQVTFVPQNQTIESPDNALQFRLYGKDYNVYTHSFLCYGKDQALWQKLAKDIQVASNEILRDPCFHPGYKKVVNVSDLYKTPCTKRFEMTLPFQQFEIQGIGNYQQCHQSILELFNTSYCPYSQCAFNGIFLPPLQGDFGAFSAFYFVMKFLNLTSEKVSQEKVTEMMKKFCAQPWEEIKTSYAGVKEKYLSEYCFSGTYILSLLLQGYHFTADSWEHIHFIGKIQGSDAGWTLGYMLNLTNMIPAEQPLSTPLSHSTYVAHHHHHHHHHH

T3: cynomolgus monkey CD39 expressed on HEK-293 cells (cynomolgus monkey, UniProt P49961 5-510 (human entry))
T3 construct: also called Cynomolgus Monkey CD39-HEK293
T3 chain: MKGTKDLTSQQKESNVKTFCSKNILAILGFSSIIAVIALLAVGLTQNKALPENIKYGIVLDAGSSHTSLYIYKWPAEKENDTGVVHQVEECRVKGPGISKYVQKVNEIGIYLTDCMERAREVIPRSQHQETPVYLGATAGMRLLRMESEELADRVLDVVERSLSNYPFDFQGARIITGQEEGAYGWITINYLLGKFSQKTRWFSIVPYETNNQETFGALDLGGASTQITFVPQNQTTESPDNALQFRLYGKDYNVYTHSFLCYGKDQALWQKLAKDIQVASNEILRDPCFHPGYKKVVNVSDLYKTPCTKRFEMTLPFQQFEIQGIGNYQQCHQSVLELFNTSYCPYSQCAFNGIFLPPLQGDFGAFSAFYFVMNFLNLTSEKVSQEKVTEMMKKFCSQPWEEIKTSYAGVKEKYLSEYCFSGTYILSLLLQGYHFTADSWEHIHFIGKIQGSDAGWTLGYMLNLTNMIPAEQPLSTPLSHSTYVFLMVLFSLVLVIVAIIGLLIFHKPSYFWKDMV


Columns and labels:
[1] = target: T1, human CD39 expressed on the cell surface; experiment: cell-based or functional assay
[2] = target: T2, soluble His-tagged human CD39 ECD …; experiment: SPR (Biacore 8K), antibody captured via anti-human Fc, CD39 ECD analyte
[3] = target: T1, human CD39 expressed on the cell surface; experiment: flow cytometry on purified human CD14+ monocytes, 400 uM ATP
[4] = target: T1, human CD39 expressed on the cell surface; experiment: cell-based or functional assay; remark: listed apart in the source
[5] = target: T1, human CD39 expressed on the cell surface; experiment: cell-based or functional assay; remark: listed apart in the source
[6] = target: T1, human CD39 expressed on the cell surface; experiment: cell-based or functional assay; remark: listed apart in the source
[7] = target: T1, human CD39 expressed on the cell surface; experiment: cell-based or functional assay; remark: listed apart in the source
[8] = target: T3, cynomolgus monkey CD39 expressed on …; experiment: FACS on HEK293 cells overexpressing cynomolgus CD39
[9] = target: T1, human CD39 expressed on the cell surface; experiment: FACS on CHO-K1 cells overexpressing human CD39
[10] = target: T1, human CD39 expressed on the cell surface; experiment: flow cytometry on purified human CD14+ monocytes, 0 uM ATP
[11] = target: T2, soluble His-tagged human CD39 ECD …; experiment: SPR (Biacore 8K), antibody captured via anti-human Fc, CD39 ECD analyte; remark: listed apart in the source

IC50, CD39 enzymatic inhibition on human monocytes, 400 uM ATP [1] | Max Inhibition (%), human monocytes, 400 uM ATP [1] | Kd [2] | EC50 [3] | IC50, CD39 enzymatic inhibition on SK-MEL-5 cells, 20 uM ATP [4] | Max Inhibition (%), SK-MEL-5 cells [4] | IC50, CD39 enzymatic inhibition on THP-1 cells, 20 uM ATP [5] | Max Inhibition (%), THP-1 cells [5] | IC50, CD39 enzymatic inhibition on human monocytes, 20 uM ATP [6] | Max Inhibition (%), human monocytes, 20 uM ATP [6] | Human THP-1 CD39 inhibition IC50 [7] | EC50 [8] | EC50 [9] | EC50 [10] | Kd [11] | Binder
0.14 nM | 80% | 0.0936 nM |  |  |  |  |  |  |  |  |  |  |  |  | hu39.2_IGG4.P (antibody, human IgG4 S228P, kappa, humanized variant of antibody 39 (VH1 + VL1), IgG4 (S228P)) heavy: not shown light: DIVLTQSPASLAVSPGQRATITCRASEGVKSYMHWYQQKPGQPPKLLIYKASNLASGVPARFSGSGSGTDFTLTINPVEADDTANYYCQQSWNDPTFGQGTKLEIKRTVAAPSVFIFPPSDEQLKSGTASVVCLLNNFYPREAKVQWKVDNALQSGNSQESVTEQDSKDSTYSLSSTLTLSKADYEKHKVYACEVTHQGLSSPVTKSFNRGEC
0.45 nM | 73% | 0.185 nM | 10 nM | 0.13 nM | 60% | 0.064 nM | 76% | 0.13 nM | 71% |  |  |  |  |  | hu39.4_IGG4.P (antibody, human IgG4 S228P, kappa, humanized variant of antibody 39 (VH3 + VL1), IgG4 (S228P)) heavy: not shown light: DIVLTQSPASLAVSPGQRATITCRASEGVKSYMHWYQQKPGQPPKLLIYKASNLASGVPARFSGSGSGTDFTLTINPVEADDTANYYCQQSWNDPTFGQGTKLEIKRTVAAPSVFIFPPSDEQLKSGTASVVCLLNNFYPREAKVQWKVDNALQSGNSQESVTEQDSKDSTYSLSSTLTLSKADYEKHKVYACEVTHQGLSSPVTKSFNRGEC
 |  |  | 26 nM | 1.1 nM | 71% | 0.095 nM | 73% | 0.59 nM | 74% | 0.26 nM | 0.78 nM | 1.7 nM | 16 nM | 0.176 nM | hu31.4_IGG4.P (antibody, human IgG4 S228P, kappa, humanized variant of antibody 31 (VH1 + VL1), IgG4 (S228P)) heavy: not shown light: DIVLTQSPALAVSPGQRATITCRTQQTVDHYGTTYMNWYQQKPGQPPKLLIYLASSLASGVPARFSGSGSGTDFTLTINPVEADDTANYYCQQSRNLWTFGGGTKVEIKRTVAAPSVFIFPPSDEQLKSGTASVVCLLNNFYPREAKVQWKVDNALQSGNSQESVTEQDSKDSTYSLSSTLTLSKADYEKHKVYACEVTHQGLSSPVTKSFNRGEC
